The text below walks through data of patent US12698483B2 (priority 2019, dated 2026).

“Also recorded” adds a separate entry of the source.

What all share (format): biochemical
Assay [1] can be described thus: Enzymatic DON-GSH conjugation assay (LC-HRMS, Orbitrap). As to conditions: 100 ppm DON, 5 mM GSH, pH6, within 24 hours; for formation of the Michael adduct of DON (MH1): against nonenzymatic background; for formation of the epoxide adduct of DON (MH2, DON-13-GSH): result in words.
Assay [2] is described as follows: Enzyme dependent formation of the GSH adduct with trichodermin. As to conditions: FIG. 14; pCA02 empty vector and no protein as controls.
Assay [3] can be described thus: Enzyme dependent formation of the GSH adduct with roridin A. As to conditions: FIG. 17; pCA02 empty vector and no protein as controls.
A short description of assay [4]: Enzyme dependent formation of the GSH adduct with T-2 toxin. As to conditions: FIG. 11; pCA02 empty vector and no protein as controls.

B1: TrGST-C02 (protein, listed as Triticum aestivum)
chain: MAGGDDLKLLGAWASPFVTRVKLALNFKGLSFEDVEEDLSNKSELLLSSNPVHKKVPVLVHNGKPICESVIIVQYIDEAFAGIGPALLPSDPYERAIARFWAAYVDDKLVAPWVQSLRAKTEEEKSEGLKQTFAAVETLEGALRECSKGEGYFGGETVGLVDISLGSLLSWLNATEVMSGTKIFDPVKTPLLAAWMERFSKLDAAKAALPEVDRVVEFAKKRQAQAAAAAAASETK
B1: in assay [1], the “formation of the Michael adduct of DON (MH1)” value was “clearly enhance Michael adduct formation; also recorded: clearly catalyze” and the “formation of the epoxide adduct of DON (MH2, DON-13-GSH)” value is on record as “clearly catalyze the formation of the epoxide-adduct; also recorded: catalyzed”. Besides, the “formation of the GSH adduct with trichodermin (Trichodermin-GSH_MH)” value in assay [2] was “Enzyme dependent formation of the GSH adduct”. Also, in assay [3], the “formation of the GSH adduct with roridin A (Roridin-GSH_MH)” value is “Enzyme dependent formation of the GSH adduct”. In addition, the “formation of the GSH adduct with T-2 toxin (T-2-GSH_MH)” value in assay [4] is “Enzyme dependent formation of the GSH adduct”.

B2: TrGST-C12 (protein, listed as Triticum aestivum)
chain: MAGGDDLKLLGAWASPFVARVKLALSFKGLSFEDVEEDLSNKSELLLSSNPVHKKVPVLVHNGKPICESMIIVQYIDEAFLVGPSLLPSDPYKRAIARFWAAYIDDKLVTPWVQSLRAKTEEEKSEGVKQTFAAVETLEGALRECSKGEGYFGGETVGLVDISLGSLLSWLIATEVMSGTKIFDPVKTPLLAAWMGRFSELDAAKAALPEVDRVVEFAKKRQAQADAAAAASETK
On to B2, for which, in assay [1], the “formation of the Michael adduct of DON (MH1)” value is reported as “clearly enhance Michael adduct formation; also recorded: clearly catalyze” and the “formation of the epoxide adduct of DON (MH2, DON-13-GSH)” value is given as “clearly catalyze the formation of the epoxide-adduct; also recorded: catalyzed”. Also, the “formation of the GSH adduct with trichodermin (Trichodermin-GSH_MH)” value in assay [2] is on record as “Enzyme dependent formation of the GSH adduct”. Also, in assay [3], the “formation of the GSH adduct with roridin A (Roridin-GSH_MH)” value is recorded as “Enzyme dependent formation of the GSH adduct”. Also, the “formation of the GSH adduct with T-2 toxin (T-2-GSH_MH)” value in assay [4] is on record as “Enzyme dependent formation of the GSH adduct”.
